Test results taken from patent US20230181671A1 (published 2023).

Assays:
[1] = target: T1, human LPAR1 (full length LPAR1, SEQ ID NO: 62) (human, UniProt Q92633 1-364); assay: transient-transfection CIFAT (method 1.11), fixed/permeabilised and live cells expressing LPAR1, microscopy
T1 construct: Also used here for hLPAR1 in HEK293 cells (method 1.15); also called Lysophosphatidic Acid Receptor 1; LPA1
Protocol: CHO-K1 cells were seeded in clear 96-well plates at 20,000 cells per 200 μL full growth medium and incubated for 24 hours at 37° C. The following day, in a sterile tube, 0.0309 uL/well PEI (Generon, MW 160,000) was diluted into 10 uL/well transfection medium (DMEM supplemented with 2 mM L-glutamine and Penicillin-Streptomycin). The diluted PEI was added to 100 ng/well DNA encoding the target protein (human LPAR1 (SEQ ID NO: 62) unless otherwise stated), before vortexing immediately and incubating the mixture for 10 minutes at room temperature. 200 μL/well full growth medium was added to the PEI-DNA mixture, then medium in wells was taken off and 200 ul full growth medium/PEI/DNA mixture was added in the wells of the adherent cell plate. The plate was incubated for 24 hours at 37° C. The next day, the medium was discarded and replaced with 200 μL full growth medium. The plate was incubated for 24 hours at 37° C. […] After washing and cell fixation with 4% PFA, the binding of the antibodies was detected using a goat anti-human Alexa Fluor 488 detection antibody (Invitrogen), incubated for 1 hour at room temperature. Fluorescence at 488 nm was measured using a BMG LABTECH ClarioStar plate reader and microscopy images were taken at 10× magnification. […]

[2] = target: T2, LPAR1 (on CHO cells; species not stated) (UniProt Q92633 1-364); assay: KinExA (method 1.14), monomeric Fab as constant binding partner, CHO-LPAR1 cells titrated
T2 construct: whole, on cells; also called CHO-LPAR1 cells
Protocol: The monomeric affinity constant KD for the interaction of antibodies with LPAR1 was determined using monomeric Fabs derived from the antibodies, using the KinExA method. In this method, the concentration of unbound antibody is measured against a range of antigen concentrations. Because KD=([Free antigen][Free antibody])/[Antigen-antibody complex], the value of KD can be deduced from these measurements. CHO-LPAR1 cells, the antigen source, are titrated in a background of constant binding partner (CBP, e.g. a Fab to be tested). Samples are gently rocked until equilibrium is reached. After incubation, cells are centrifuged and the free CBP is removed without disturbing the cell pellet. Beads coated with Anti-Species are used to capture a portion of free CBP. Captured CBP is detected with a fluorescently labelled Anti-CBP using the KinExA. The fluorescent signal is converted to a voltage signal that is directly proportional to the concentration of free CBP in the equilibrated sample.

[3] = target: T1, human LPAR1 (full length LPAR1, SEQ ID …); assay: transient-transfection CIFAT (protocol 1.11) on CHO-K1 cells expressing human LPAR1 and alanine variants
Protocol: CHO-K1 cells were seeded in clear 96-well plates at 20,000 cells per 200 μL full growth medium and incubated for 24 hours at 37° C. The following day, in a sterile tube, 0.0309 uL/well PEI (Generon, MW 160,000) was diluted into 10 uL/well transfection medium (DMEM supplemented with 2 mM L-glutamine and Penicillin-Streptomycin). The diluted PEI was added to 100 ng/well DNA encoding the target protein (human LPAR1 (SEQ ID NO: 62) unless otherwise stated), before vortexing immediately and incubating the mixture for 10 minutes at room temperature. 200 μL/well full growth medium was added to the PEI-DNA mixture, then medium in wells was taken off and 200 ul full growth medium/PEI/DNA mixture was added in the wells of the adherent cell plate. […] After washing and cell fixation with 4% PFA, the binding of the antibodies was detected using a goat anti-human Alexa Fluor 488 detection antibody (Invitrogen), incubated for 1 hour at room temperature. Fluorescence at 488 nm was measured using a BMG LABTECH ClarioStar plate reader and microscopy images were taken at 10× magnification.
Based on the epitope analysis presented in FIGS. 3 and 4, constructs were designed to test the important residues/interaction regions predicted in silico. […] CHO-K1 cells were transiently transfected with these plasm ids and the binding of an anti-LPAR1 mAb assessed to each of these receptor variants using protocol 1.11. […]

T1 sequence (Q92633 whole entry): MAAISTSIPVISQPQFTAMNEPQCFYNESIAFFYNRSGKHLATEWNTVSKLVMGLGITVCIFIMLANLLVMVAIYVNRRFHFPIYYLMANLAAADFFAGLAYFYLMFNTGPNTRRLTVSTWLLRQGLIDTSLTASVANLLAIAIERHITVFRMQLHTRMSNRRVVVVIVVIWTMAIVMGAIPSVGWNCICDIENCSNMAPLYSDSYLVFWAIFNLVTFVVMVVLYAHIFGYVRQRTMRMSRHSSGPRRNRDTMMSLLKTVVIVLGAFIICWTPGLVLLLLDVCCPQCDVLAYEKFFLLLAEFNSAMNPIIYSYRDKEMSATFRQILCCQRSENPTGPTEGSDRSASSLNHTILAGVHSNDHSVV
T2 sequence (Q92633 whole entry): as above

| Kd [2] [nM] | Binder | also measured |
| --- | --- | --- |
|  | Antibody 4 (antibody, IgG1, V domains shown) VH: QVQLQQSGAELARPGASVKLSCKASGYTFTSSGISWVKQRTGQGLEWIGEIYPRSGYTNYNEKFKGKASLTADKSSRTAYMELRSLTSEDSAVYFCARDYDNSRYALDYWGQGTSVTVSS VL: SIVMTQTPKFLPVSAGDRVTMTCKASQSVGYNVAWYQQKTGQSPKLLIYYASNRYTGVPDRFTGSGSGTDFTFTISSVQVEDLAVYFCQHHYSSPLTFGAGTKLELK | binding result [1]: binds |
|  | 63D8 (antibody, IgG1, V domains shown, First found as a mouse hybridoma antibody) VH: EVKLLESGGGLVQPGGSLKLSCTASGFDFSRYWMSWVRQAPGKGLEWIGEINPSRSAINYSPSLKDKFIISRDNAKNTLYLQMSKVRSEDTALYYCARQGQRLRYGMDYWGQGTSVTVSS VL: DIVMTQSPNFMSTSVGDRVSVTCRASQDVRTAVAWYQQKPGRSPKLLIYWTSTRHTGVPDRFTGSGSGTDYTLTISSVQAADLALYYCQQHYGTPLTFGAGTNLELK | binding result [1]: binds |
| 0.824 | Antibody 15, monomeric Fab (Fab, V domains shown) VH: QVQLVQSGSELKKPGASVKVSCKASGYTFTSSGISWVRQAPGQGLEWMGEILPRSGYTNYNQGFTGRFVFSADKSVSTAYLQISSLKAEDTAVYYCARDFKGGRYAMDYWGQGTTVTVSS VL: SIQMTQSPSSLSASVGDRVTITCQASQSVRYNVAWYQQKPGKAPKLLIYYASNRYEGVPSRFSGSGSGTDFTFTISSLQPEDIATYFCQHHYSSPLTFGGGTKLEIK |  |
| 0.824 | Antibody 16, monomeric Fab (Fab, V domains shown, Same VH and VL as Antibody 15; The two antibodies differ only in the silencing mutations of the heavy chain constant region) VH: QVQLVQSGSELKKPGASVKVSCKASGYTFTSSGISWVRQAPGQGLEWMGEILPRSGYTNYNQGFTGRFVFSADKSVSTAYLQISSLKAEDTAVYYCARDFKGGRYAMDYWGQGTTVTVSS VL: SIQMTQSPSSLSASVGDRVTITCQASQSVRYNVAWYQQKPGKAPKLLIYYASNRYEGVPSRFSGSGSGTDFTFTISSLQPEDIATYFCQHHYSSPLTFGGGTKLEIK |  |
|  | anti-LPAR1 mAb with the VH of SEQ ID NO: 369 and VL of SEQ ID NO: 39 (antibody, IgG1, V domains shown, also called huVH4_Q61A97A99G104 (VH); 11 VL) VH: QVQLVQSGSELKKPGASVKVSCKASGYTFTSSGISWVRQAPGQGLEWMGEILPRSGYTNYNQGFTGRFVFSADKSVSTAYLQISSLKAEDTAVYYCARDFASARYAMDYWGQGTTVTVSS VL: SIQMTQSPSSLSASVGDRVTITCQASQSVRYNVAWYQQKPGKAPKLLIYYASNRYTGVPSRFSGSGSGTDFTFTISSLQPEDIATYFCQHHYSSPLTFGGGTKLEIK | binding result [3]: binds |
| 1 | Antibody 17, monomeric Fab (Fab, V domains shown) VH: QVQLVQSGSELKKPGASVKVSCKASGYTFTSSGISWVRQAPGQGLEWMGEIQPRSGYTNYNQGFTGRFVFSADKSVSTAYLQISSLKAEDTAVYYCARDKGPARYTMDYWGQGTTVTVSS VL: SIQMTQSPSSLSASVGDRVTITCQASQSVRYNVAWYQQKPGKAPKLLIYYASNRYEGVPSRFSGSGSGTDFTFTISSLQPEDIATYFCQHHYSSPLTFGGGTKLEIK |  |
| 1.28 | Antibody 12, monomeric Fab (Fab, V domains shown) VH: QVQLVQSGSELKKPGASVKVSCKASGYTFTSSGISWVRQAPGQGLEWMGEILPRSGYTNYNQGFTGRFVFSADKSVSTAYLQISSLKAEDTAVYYCARDFKGGRYAMDYWGQGTTVTVSS VL: SIQMTQSPSSLSASVGDRVTITCQASQSVRYNVAWYQQKPGKAPKLLIYYASNRYDGVPSRFSGSGSGTDFTFTISSLQPEDIATYFCQHHYSSPLTFGGGTKLEIK |  |
| 1.39 | Antibody 18, monomeric Fab (Fab, V domains shown) VH: QVQLVQSGSELKKPGASVKVSCKASGYTFTSSGISWVRQAPGQGLEWMGEIQPRSGYTNYNQGFTGRFVFSADKSVSTAYLQISSLKAEDTAVYYCARDKGPARYTMDYWGQGTTVTVSS VL: SIQMTQSPSSLSASVGDRVTITCQASQSIRYNVAWYQQKPGKAPKLLIYYASNRYEGVPSRFSGSGSGTDFTFTISSLQPEDIATYYCQHHYSSPLTFGGGTKLEIK |  |
| 0.993 | Antibody 13, monomeric Fab (Fab, V domains shown) VH: QVQLVQSGSELKKPGASVKVSCKASGYTFTSSGISWVRQAPGQGLEWMGEILPRSGYTNYNQGFTGRFVFSADKSVSTAYLQISSLKAEDTAVYYCARDKGPSRYTMDYWGQGTTVTVSS VL: SIQMTQSPSSLSASVGDRVTITCQASQSVRYNVAWYQQKPGKAPKLLIYYASNRYDGVPSRFSGSGSGTDFTFTISSLQPEDIATYFCQHHYSSPLTFGGGTKLEIK |  |
